In patent US20160031944A1 (PROTAGONIST THERAPEUTICS, published 2016):

Assays:
[1] = molecular target: T1, α4β1 (R&D Systems #5668-A4) (UniProt P13612 34-977; P05556 21-728); experiment: α4β1-VCAM competition ELISA
T1 construct: bought; printed as αβ1; detected with mouse anti-human CD49d antibody 9F10; also called αβ1; A4B1
Method: The solution was removed by shaking and then blocked with 250 ul of 1% BSA in 1×PBS per well. The wells were then incubated at room temperature for 1 hr with shaking. Each well was then washed once with wash buffer (50 mM Tris-HCl pH7.6, 100 mM NaCL, 1 mM MnCl₂ or MgCl₂, 0.05% Tween-20). 25 ul of serial dilutions of peptides starting at 200 μM in assay buffer (Assay buffer: 50 mM Tris-HCl pH7.6, 100 mM NaCl, 1 mM MnCl₂ or MgCl₂, 0.05% Tween-20) was added to each well. […] The final peptide and αβ1 concentrations were 100 μM and 60 nM, respectively. The plates were then incubated at 37° C. for 2 hr. The solution was then removed by shaking and each well was washed three times with wash buffer. 50 ul of 9F10 antibody at 4 ug/ml (purified mouse anti-human CD49d, BD Bioscience Cat#555502) was then added to each well, and the plate was incubated at room temperature for 1 hr with shaking. The solution was again removed by shaking, and each well was washed three times with wash buffer. 50 ul of peroxidase-conjugated AffiniPure Goat anti-mouse IgG (Jackson immune research cat #115-035-003) diluted in 1:5000 in assay buffer was added to each well. The plate was incubated at room temperature for 30 min with shaking. Each well was then washed 3 times with wash buffer. […] The reaction was stepped with 2N H₂SO₄ and absorbance was read at 450 nm.

[2] = molecular target: T2, rh integrin α4β7 (R&D Systems #5397-A30) (human, UniProt P13612 34-977; P26010 20-723); experiment: α4β7-MAdCAM competition ELISA
T2 construct: bought; coated on a nickel coated plate at 800 ng/well; also called A4B7
Method: A nickel coated plate (Pierce #15442) was coated with rh integrin α4β7 (R&D Systems #5397-A30) at 800 ng/well and incubated at room temperature with shaking for 1 hr. The solution was then removed by shaking and blocked with assay buffer (50 mM Tris-HCl pH7.6, 150 mM NaCl, 1 mM MnCl₂ or MgCl₂, 0.05% Tween-20 and 0.5% BSA) at 250 ul/well. The plate was then incubated at room temperature for 1 hr. Each well was washed 3 times with wash buffer (50 mM Tris-HCl pH7.6, 100 mM NaCl, 1 mM MnCl₂ or MgCl₂, 0.05% Tween-20). To each well was added 25 ul of a serial dilution (3-fold dilutions in assay buffer) of peptides starting at 20 μM. 25 ul of recombinant human MAdCAM-1 (R&D Systems #6056-MC) was then added to each well at a fixed concentration 20 nM. The final starting peptide concentration was 10 μM, and the final MAdCAM-1 concentration was 10 nM. The plates were then incubated at room temperature for 1 hr to reach binding equilibrium. The wells were then washed three times with wash buffer. 50 ul of mouse anti-human IgG1-HRP (Invitrogen #A10648) diluted in 1:2000 in assay buffer was then added to each well. The wells were incubated at room temperature for 45 min with shaking. The wells were then washed 3 times with wash buffer. 100 ul of TMB were then added to each well and closely observe during development time. The reaction was stopped with 2N H₂SO₄ and absorbance was read at 450 nm.

T2 sequence (P13612 34-977 limits assumed, chain 1 of 2): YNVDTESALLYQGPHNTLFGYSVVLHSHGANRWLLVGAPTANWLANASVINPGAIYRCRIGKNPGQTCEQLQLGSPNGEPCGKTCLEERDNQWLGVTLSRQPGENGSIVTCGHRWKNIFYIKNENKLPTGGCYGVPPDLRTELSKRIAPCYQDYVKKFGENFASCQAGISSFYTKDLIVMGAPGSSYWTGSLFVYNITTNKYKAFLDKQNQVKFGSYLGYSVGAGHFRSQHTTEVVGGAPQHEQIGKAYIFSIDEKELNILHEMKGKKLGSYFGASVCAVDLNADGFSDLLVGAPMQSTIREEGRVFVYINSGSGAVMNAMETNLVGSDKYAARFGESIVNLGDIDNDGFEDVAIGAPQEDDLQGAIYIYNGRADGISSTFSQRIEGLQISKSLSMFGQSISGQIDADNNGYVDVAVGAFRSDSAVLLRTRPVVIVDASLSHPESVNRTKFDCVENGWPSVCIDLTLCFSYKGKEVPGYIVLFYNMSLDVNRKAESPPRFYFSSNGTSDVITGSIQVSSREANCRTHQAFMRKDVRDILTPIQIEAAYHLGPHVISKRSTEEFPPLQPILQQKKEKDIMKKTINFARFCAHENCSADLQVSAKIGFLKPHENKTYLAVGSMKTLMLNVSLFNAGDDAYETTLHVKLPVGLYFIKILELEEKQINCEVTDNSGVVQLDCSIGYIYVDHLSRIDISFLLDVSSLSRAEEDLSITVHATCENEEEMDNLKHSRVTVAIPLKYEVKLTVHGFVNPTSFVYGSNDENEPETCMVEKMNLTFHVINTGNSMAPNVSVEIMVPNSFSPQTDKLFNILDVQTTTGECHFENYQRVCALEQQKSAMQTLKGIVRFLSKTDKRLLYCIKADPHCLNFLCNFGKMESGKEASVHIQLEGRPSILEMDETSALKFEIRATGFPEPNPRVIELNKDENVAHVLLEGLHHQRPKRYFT
T2 sequence (P26010 20-723 limits assumed, chain 2 of 2): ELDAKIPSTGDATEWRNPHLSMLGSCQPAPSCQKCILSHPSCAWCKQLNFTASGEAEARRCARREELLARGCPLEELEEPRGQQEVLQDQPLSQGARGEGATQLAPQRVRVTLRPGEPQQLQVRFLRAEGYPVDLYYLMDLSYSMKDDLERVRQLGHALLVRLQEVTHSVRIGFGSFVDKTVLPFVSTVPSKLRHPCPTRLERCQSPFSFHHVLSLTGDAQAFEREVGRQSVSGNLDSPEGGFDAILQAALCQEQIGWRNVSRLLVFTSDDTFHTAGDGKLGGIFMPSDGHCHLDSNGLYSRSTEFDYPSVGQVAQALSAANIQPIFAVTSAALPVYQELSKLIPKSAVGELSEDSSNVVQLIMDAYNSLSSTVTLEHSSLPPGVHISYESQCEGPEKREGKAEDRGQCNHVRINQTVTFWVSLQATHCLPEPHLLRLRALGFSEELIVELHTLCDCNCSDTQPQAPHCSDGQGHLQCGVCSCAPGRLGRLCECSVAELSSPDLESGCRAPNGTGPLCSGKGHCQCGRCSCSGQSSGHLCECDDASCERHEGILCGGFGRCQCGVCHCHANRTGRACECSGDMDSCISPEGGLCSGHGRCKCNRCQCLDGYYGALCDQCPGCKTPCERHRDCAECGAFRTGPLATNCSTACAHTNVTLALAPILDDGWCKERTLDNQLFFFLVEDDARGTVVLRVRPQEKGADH
T1 sequence (P13612 34-977 limits assumed, chain 1 of 2): as the sequence (P13612 34-977 limits assumed, chain 1 of 2) above
T1 sequence (P05556 21-728 limits assumed, chain 2 of 2): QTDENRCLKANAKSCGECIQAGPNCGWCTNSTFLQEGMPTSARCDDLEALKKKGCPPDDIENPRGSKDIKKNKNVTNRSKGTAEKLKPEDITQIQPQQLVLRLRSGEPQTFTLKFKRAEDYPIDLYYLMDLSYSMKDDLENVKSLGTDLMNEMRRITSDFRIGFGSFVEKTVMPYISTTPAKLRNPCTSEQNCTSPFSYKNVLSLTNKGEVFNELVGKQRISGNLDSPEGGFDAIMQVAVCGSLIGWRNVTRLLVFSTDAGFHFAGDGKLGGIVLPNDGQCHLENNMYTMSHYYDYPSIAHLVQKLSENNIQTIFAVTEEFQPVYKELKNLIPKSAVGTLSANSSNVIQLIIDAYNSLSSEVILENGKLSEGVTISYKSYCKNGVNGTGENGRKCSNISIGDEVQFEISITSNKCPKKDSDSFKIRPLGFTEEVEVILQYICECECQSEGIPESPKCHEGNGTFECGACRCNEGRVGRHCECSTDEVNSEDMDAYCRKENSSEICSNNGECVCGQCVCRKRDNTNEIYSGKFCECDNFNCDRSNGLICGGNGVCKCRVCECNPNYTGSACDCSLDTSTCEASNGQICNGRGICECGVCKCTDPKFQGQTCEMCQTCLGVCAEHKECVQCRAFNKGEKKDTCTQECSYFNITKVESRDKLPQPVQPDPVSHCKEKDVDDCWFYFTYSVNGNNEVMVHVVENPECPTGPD

IC50 [1]: 2020 nM
IC50 [2]: 97 nM
B1: SEQ ID NO 385 (peptide)
peptide: Ac-CRSDTLCGE-NH2
modifications: also: cyclised, mode not given here
notes: also called control peptide
